Laboratory results as given in patent US20240043489A1, “Cytokine Prodrugs Comprising a Cleavable Linker” (Trutino Biosciences Inc., priority 2020, published 2024).
“Also recorded” adds a separate entry of the source. Like-named read-outs stand apart in the source and are kept apart here.

What was measured:
fibronectin = fibronectin (Homo sapiens, UniProt P02751); conditions: Note 1, cited from earlier work
[1] = target: collagen (agarose cross-linked to collagen, Sigma); assay: pulldown on collagen-agarose beads, anti-mouse IL-2 immunoblot, bound fraction normalized to Construct B
[2] = target: collagen (agarose cross-linked to collagen, Sigma); assay: pulldown on collagen-agarose beads, anti-mouse IL-2 immunoblot, band quantified with iBright
heparin = assay: IL-2 fusion protein plate binding assay to Heparin-BSA conjugate
Description: 96-well plates were coated with 25 ug/mL of Heparin-BSA conjugate (provided by Dr. Mueller, Boerhinger Ingelheim) or control BSA for 18-22 h at room temperature on shaker (350 rpm). After washing, wells are blocked with PBS-0.05% Tween 20/1% BSA for 90 min, then fusion proteins are titrated in 1% BSA/PBS-0.05% Tween 20 pH 7.5 and/or pH 6 and added for 2 hr at room temperature with shaking. After washing, an anti-mouse IL-2 biotin-labelled detection antibody (JES6-5H4, ThermoFisher) is added and binding is detected using Ultra Strepavidin HIRP (ThermoFisher). The plate was developed by adding the chromogenic tetramethylbenzidine substrate (Ultra TMB, ThermoFisher). The reaction is stopped by addition of 0.5M H2SO4 and the absorbance is read at 450-650 nm.

[3] = Full-length drug levels in serum by ELISA; type: in vivo, mice; conditions: Construct CC 20 mg/kg; 24 hrs after dosing
Description: (§1) We developed an ELISA assay to detect and quantify fusion proteins comprising IL-2 and IL-2Rα moieties. Wells of a 96-well plate are coated overnight with 100 uL of a rat anti-mouse IL-2 monoclonal antibody (JES6-1A12; ThermoFisher) at […] in PBS. After washing, wells are blocked with TBS/0.05% Tween 20/1% BSA, then fusion proteins and/or unknown biological samples are added for 1 hr at room temperature. After washing, an anti-mouse IL-2Rα biotin-labelled detection antibody (BAF2438, R&D systems) is added and binding is detected using Ultra Strepavidin HRP (ThermoFisher). The ELISA plate was developed by adding the chromogenic tetramethylbenzidine substrate (Ultra TMB, ThermoFisher). The reaction is stopped by addition of 0.5M H2SO4 and the absorbance is read at 450-650 nm.
Additional serum samples collected at Day 17 (Construct B 20 mg/kg) and Day 21 (Construct Y 20 mg/kg), 4 days and 8 days respectively after the last IV injection, were assayed for full-length IL-2 fusion drug.

HEK-Blue™ IL-2 cells = assay: HEK-Blue IL2 reporter assay (SEAP, OD630); type: cell-based; conditions: Table 5C
Description: Recombinant MMP9 and/or MMP2 (R&D Systems) was first activated with p-aminophenylmercuric acetate and this activated protease or equivalent amount of activating solution without the protease was used to digest or mock digest the fusion protein for 1 hr, 2 hr, 4 hr and overnight (18-22 hr) at 37 C. Cleavage assays are set up in TCNB buffer: 50 mM Tris, 10 mM CaCl2), 150 mM NaCl, 0.05% Brij-35 (w/v), pH 7.5. Digested protein was aliquoted and stored at −80° C. prior to testing. Aliquots of digests were subsequently analyzed by SDS-PAGE followed by Western blotting to evaluate the extent of cleavage. Digests were also assessed in functional assays such as CTLL-2 proliferation and HEK-Blue Interleukin reporter assays. As shown in FIGS. 2A-E, essentially complete cleavage by MMP9 protease of the fusion proteins with functional site is seen after overnight incubation. In contrast, proteins containing a scrambled MMP cleavage site are not cut (FIG. 2E). HEK-Blue™ IL-2 cells are specifically designed to monitor the activation of the JAK-STAT pathway induced by IL-2. Indeed, stimulation with human or murine IL-2 triggers the JAK/STAT5 pathway and induces secreted embryonic alkaline phosphatase (SEAP) production. SEAP can be readily monitored when using QUANTI-Blue™, a SEAP detection medium. These cells respond to human and murine IL-2. For the HEK Blue assay, untreated and digested samples are titrated and added to 50 000 HEK Blue cells per well in 200 ul medium in a 96-well plate and incubated at 37C in 5% CO2 for 20-24 hr. The following day, levels of SEAP are measured by adding 20 uL of cell supernatant to QuantiBlue reagent, followed by 1-3 h incubation at 37C and reading absorbance at 630 nm. FIGS. 3C-J, 3Q-Y and Table 5B-5C show results obtained from IL2 fusion proteins tested in HEK Blue IL2 assay.

[4] = Drug and IL-2 levels in B16F10 tumor lysates by ELISA; type: in vivo, mice
Description: as §1
We developed a second ELISA assay to detect and quantify mouse IL-2 and/or fusion proteins comprising an IL-2 moiety. Wells of a 96-well plate are coated overnight with 100 uL of a rat anti-mouse IL-2 monoclonal antibody (JES6-1A12; ThermoFisher) at […] in PBS. After washing, wells are blocked with TBS/0.05% Tween 20/1% BSA, then fusion proteins and/or unknown biological samples are added for 1 hr at room temperature. After washing, an anti-mouse IL-2 biotin-labelled detection antibody (JES6-5H4, ThermoFisher) is added and binding is detected using Ultra Strepavidin HRP (ThermoFisher). The ELISA plate was developed by adding the chromogenic tetramethylbenzidine substrate (Ultra TMB, ThermoFisher). The reaction is stopped by addition of 0.5M H2SO4 and the absorbance is read at 450-650 nm. This assay is able to simultaneously detect both free mouse IL-2 as well as mouse IL-2 in the context of pro-drug fusion proteins.
We quantified levels of full-length IL2-IL2Ra fusion proteins and IL-2 in tumor samples collected during pre-clinical efficacy studies comparing Construct B and retention linker IL-2 fusion drugs (see example 17).
Tumors (n=3 per group) were collected 24 h after the last dose injection, flash frozen and stored at −80C until further processing. Tumor lysates were generated using tissue extraction reagent (ThermoFisher) supplemented with protease and phosphatase inhibitors and standard techniques and protein concentrations were determined using the BCA assay (Pierce).
Lysates were tested with in-house ELISAs to measure full-length IL-2 fusion proteins (IL-2 capture/IL-2Rα detection) and IL-2 fusion proteins+free IL-2 (IL-2 capture/IL-2 detection). Free IL-2 levels in tumor were calculated by subtracting drug levels from the drug+IL-2 data set. Results were normalized to 1 mg of tumor lysate and mean values are shown in FIG. 15C-H. Levels of Construct CC (20 mg/kg dose) in tumor are roughly 3-fold higher compared to Construct B levels, despite Construct B being dosed at 40 mg/kg (FIG. C). […] Likewise, IL-2 levels in Construct CC, Construct GG and Construct II treated tumors are elevated compared to Construct B treated tumors (FIG. 15E/H). This implies that next generation retention linker technology is able to retain in TME both full-length drug and released IL-2 post-cleavage.

[5] = pH-sensitive sequences derived from thrombospondin

Sequence of fibronectin (P02751 32-2477, species assumed): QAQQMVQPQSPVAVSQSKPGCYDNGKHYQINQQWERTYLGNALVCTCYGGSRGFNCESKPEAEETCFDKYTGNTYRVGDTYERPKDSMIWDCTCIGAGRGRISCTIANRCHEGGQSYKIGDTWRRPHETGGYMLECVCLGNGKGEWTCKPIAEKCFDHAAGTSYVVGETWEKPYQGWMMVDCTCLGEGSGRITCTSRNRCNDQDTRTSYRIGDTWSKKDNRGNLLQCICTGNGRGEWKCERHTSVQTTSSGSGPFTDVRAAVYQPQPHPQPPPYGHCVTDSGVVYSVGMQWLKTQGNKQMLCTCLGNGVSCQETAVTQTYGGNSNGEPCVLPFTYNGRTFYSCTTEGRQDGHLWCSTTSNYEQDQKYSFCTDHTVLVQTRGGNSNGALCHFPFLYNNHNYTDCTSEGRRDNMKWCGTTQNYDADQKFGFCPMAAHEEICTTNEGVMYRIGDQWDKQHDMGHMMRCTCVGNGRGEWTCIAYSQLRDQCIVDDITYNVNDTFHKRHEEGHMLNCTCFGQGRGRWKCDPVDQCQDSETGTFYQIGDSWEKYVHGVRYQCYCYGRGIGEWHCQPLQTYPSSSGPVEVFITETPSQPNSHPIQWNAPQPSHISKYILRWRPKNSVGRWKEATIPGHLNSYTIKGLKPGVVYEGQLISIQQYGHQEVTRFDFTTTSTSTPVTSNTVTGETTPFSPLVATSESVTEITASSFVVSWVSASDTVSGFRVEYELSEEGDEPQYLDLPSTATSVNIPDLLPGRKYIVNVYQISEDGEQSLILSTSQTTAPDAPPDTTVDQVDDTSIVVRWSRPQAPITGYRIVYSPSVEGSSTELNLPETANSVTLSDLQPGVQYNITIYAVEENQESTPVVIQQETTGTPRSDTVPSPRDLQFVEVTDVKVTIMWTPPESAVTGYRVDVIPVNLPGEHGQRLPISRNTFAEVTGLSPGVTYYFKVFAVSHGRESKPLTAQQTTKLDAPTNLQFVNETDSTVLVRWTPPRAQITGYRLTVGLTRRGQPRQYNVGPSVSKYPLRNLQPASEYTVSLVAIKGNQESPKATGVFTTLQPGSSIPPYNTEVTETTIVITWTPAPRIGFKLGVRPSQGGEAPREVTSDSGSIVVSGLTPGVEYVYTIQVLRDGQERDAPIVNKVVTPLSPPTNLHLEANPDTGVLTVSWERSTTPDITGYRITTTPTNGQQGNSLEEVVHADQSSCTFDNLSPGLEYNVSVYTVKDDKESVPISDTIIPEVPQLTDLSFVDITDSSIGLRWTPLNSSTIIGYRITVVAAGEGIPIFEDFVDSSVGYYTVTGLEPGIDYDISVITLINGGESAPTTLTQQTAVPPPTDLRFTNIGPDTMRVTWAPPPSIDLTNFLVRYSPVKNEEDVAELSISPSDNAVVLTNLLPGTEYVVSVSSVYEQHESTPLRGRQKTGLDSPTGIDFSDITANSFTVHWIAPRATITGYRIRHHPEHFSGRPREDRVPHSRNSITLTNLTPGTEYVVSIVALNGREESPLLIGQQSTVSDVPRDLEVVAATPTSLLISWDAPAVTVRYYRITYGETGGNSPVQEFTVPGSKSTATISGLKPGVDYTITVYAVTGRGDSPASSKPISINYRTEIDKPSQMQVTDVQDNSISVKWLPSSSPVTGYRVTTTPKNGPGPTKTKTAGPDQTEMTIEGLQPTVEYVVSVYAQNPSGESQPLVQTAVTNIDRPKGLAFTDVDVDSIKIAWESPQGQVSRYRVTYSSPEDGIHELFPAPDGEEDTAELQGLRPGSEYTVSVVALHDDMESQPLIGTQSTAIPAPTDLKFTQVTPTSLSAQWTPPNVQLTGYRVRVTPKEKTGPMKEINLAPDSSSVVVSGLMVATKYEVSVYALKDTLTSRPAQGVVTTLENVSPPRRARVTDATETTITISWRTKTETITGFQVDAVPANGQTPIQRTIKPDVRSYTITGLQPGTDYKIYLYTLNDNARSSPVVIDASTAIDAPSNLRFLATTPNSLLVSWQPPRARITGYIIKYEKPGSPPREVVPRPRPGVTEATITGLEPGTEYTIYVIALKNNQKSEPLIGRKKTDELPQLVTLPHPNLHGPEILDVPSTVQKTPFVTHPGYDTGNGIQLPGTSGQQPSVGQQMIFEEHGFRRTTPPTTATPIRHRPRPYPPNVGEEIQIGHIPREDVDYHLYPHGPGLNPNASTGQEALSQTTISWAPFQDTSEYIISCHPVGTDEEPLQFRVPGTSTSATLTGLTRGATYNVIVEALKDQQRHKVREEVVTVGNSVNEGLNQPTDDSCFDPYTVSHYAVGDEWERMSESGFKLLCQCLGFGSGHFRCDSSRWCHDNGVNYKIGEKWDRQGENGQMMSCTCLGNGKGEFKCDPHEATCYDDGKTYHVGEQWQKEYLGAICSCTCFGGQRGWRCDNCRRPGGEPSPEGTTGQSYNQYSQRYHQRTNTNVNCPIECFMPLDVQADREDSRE

| Molecule | affinity (Binds to Fibronectin) (fibronectin; [5]) | Normalized (fold (relative to Construct B)) [1] | Bound [2] | Bound (% input) [2] [%] | further results |
| --- | --- | --- | --- | --- | --- |
| 656 (GGWSHWSPWSS) [Construct 656] | derived from thrombospondin (medium affinity) |  |  |  |  |
| 655 (KRFKQDGGWSHWSP) [Construct 655] | derived from thrombospondin (medium affinity) |  |  |  |  |
| 654 (KRFKQDGGWSHWSPWSS) [Construct 654] | derived from thrombospondin (low affinity) |  |  |  |  |
| 680 (QFGGHNSVDFEEDT) [Construct 680] |  |  |  |  | affinity (Binds to Fibronectin) (fibronectin; FAB D3 fragments): non-binding control |
| Construct B (Fc fusion) APTSSSTSSSTAEAQQQQQQQQQQQQHLEQLLMDLQELLSRMENYRNLKLPRMLTFKFYLPKQATELKDLQCLEDELGPLRHVLDLTQSKSFQLEDAENFISNIRVTVVKLKGSDNTFECQFDDESATVVDFLRRWIAFCQSIISTSPQSGGGGSGGGGGPLGVRGGGGGSGGGGSELCLYDPPEVPNATFKALSYKNGTILNCECKRGFRRLKELVYMRCLGNSWSSNCQCTSNSHDKSRKQVTAQLEHQKEQQTTTDMQKPTQSMHQENLTGHCREPPPWKHEDSKRIYHFVEGQSVHYECIPGYKALQRGPAISICKMKCGKTGWTQPQLTCVDEREHHRFLASEESQGSRNSSPESETSCPITTTDFPQPTETTAMTETFVLTMEYKGCKPCICTVPEVSSVFIFPPKPKDVLTITLTPKVTCVVVDISKDDPEVQFSWFVDDVEVHTAQTQPREEQFNSTFRSVSELPIMHQDWLNGKEFKCRVNSAAFPAPIEKTISKTKGRPKAPQVYTIPPPKEQMAKDKVSLTCMITDFFPEDITVEWQWNGQPAENYKNTQPIMDTDGSYFVYSKLNVQKSNWEAGNTFTCSVLHEGLHNHHTEKSLSHSPGK |  | 1 | 2310 | 0.3 |  |
| Construct II (Fc fusion) APTSSSTSSSTAEAQQQQQQQQQQQQHLEQLLMDLQELLSRMENYRNLKLPRMLTFKFYLPKQATELKDLQCLEDELGPLRHVLDLTQSKSFQLEDAENFISNIRVTVVKLKGSDNTFECQFDDESATVVDFLRRWIAFCQSIISTSPQSLHERHLNNNGPLGVRGGGGGSGGGGSELCLYDPPEVPNATFKALSYKNGTILNCECKRGFRRLKELVYMRCLGNSWSSNCQCTSNSHDKSRKQVTAQLEHQKEQQTTTDMQKPTQSMHQENLTGHCREPPPWKHEDSKRIYHFVEGQSVHYECIPGYKALQRGPAISICKMKCGKTGWTQPQLTCVDEREHHRFLASEESQGSRNSSPESETSCPITTTDFPQPTETTAMTETFVLTMEYKGCKPCICTVPEVSSVFIFPPKPKDVLTITLTPKVTCVVVDISKDDPEVQFSWFVDDVEVHTAQTQPREEQFNSTFRSVSELPIMHQDWLNGKEFKCRVNSAAFPAPIEKTISKTKGRPKAPQVYTIPPPKEQMAKDKVSLTCMITDFFPEDITVEWQWNGQPAENYKNTQPIMDTDGSYFVYSKLNVQKSNWEAGNTFTCSVLHEGLHNHHTEKSLSHSPGK |  | 1.4 | 2280 | 0.4 |  |
| Construct CC: SEQ ID NO 813: m IL2-2x(GHHPH)-MMPcs1-2x(G4S)-mIL2Ra(1-215)-mu IgG1 Fc (protein) APTSSSTSSSTAEAQQQQQQQQQQQQHLEQLLMDLQELLSRMENYRNLKLPRMLTFKFYLPKQATELKDLQCLEDELGPLRHVLDLTQSKSFQLEDAENFISNIRVTVVKLKGSDNTFECQFDDESATVVDFLRRWIAFCQSIISTSPQGHHPHGHHPHGPLGVRGGGGGSGGGGSELCLYDPPEVPNATFKALSYKNGTILNCECKRGFRRLKELVYMRCLGNSWSSNCQCTSNSHDKSRKQVTAQLEHQKEQQTTTDMQKPTQSMHQENLTGHCREPPPWKHEDSKRIYHFVEGQSVHYECIPGYKALQRGPAISICKMKCGKTGWTQPQLTCVDEREHHRFLASEESQGSRNSSPESETSCPITTTDFPQPTETTAMTETFVLTMEYKGCKPCICTVPEVSSVFIFPPKPKDVLTITLTPKVTCVVVDISKDDPEVQFSWFVDDVEVHTAQTQPREEQFNSTFRSVSELPIMHQDWLNGKEFKCRVNSAAFPAPIEKTISKTKGRPKAPQVYTIPPPKEQMAKDKVSLTCMITDFFPEDITVEWQWNGQPAENYKNTQPIMDTDGSYFVYSKLNVQKSNWEAGNTFTCSVLHEGLHNHHTEKSLSHSPGK |  |  |  |  | EC50 (heparin; acidic pH): 10 nM; heparin binding (qualitative) (heparin; pH 6 vs pH 7.5, plate assay): bind heparin in dose-dependent manner and with higher affinity than Construct B; also recorded: preferentially binds heparin at acidic pH; circulating drug levels compared with Construct B (40 mg/kg) [3]: roughly similar; EC50 (HEK-Blue™ IL-2 cells; cleaved with MMP9, read-out: +MMP EC50): 0.013 nM; EC50 (HEK-Blue™ IL-2 cells; uncleaved, read-out: −MMP EC50): 0.66 nM; drug levels in tumor relative to Construct B (40 mg/kg) ([4]; Construct CC 20 mg/kg, tumors 24 h after last dose): roughly 3 fold; IL-2 levels in treated tumors compared to Construct B treated tumors ([4]; free IL-2 calculated by subtraction, 24 h after last dose): elevated |
| Construct GG (Fc fusion) APTSSSTSSSTAEAQQQQQQQQQQQQHLEQLLMDLQELLSRMENYRNLKLPRMLTFKFYLPKQATELKDLQCLEDELGPLRHVLDLTQSKSFQLEDAENFISNIRVTVVKLKGSDNTFECQFDDESATVVDFLRRWIAFCQSIISTSPQSGGKLWVLPKGPLGVRGGGGGSGGGGSELCLYDPPEVPNATFKALSYKNGTILNCECKRGFRRLKELVYMRCLGNSWSSNCQCTSNSHDKSRKQVTAQLEHQKEQQTTTDMQKPTQSMHQENLTGHCREPPPWKHEDSKRIYHFVEGQSVHYECIPGYKALQRGPAISICKMKCGKTGWTQPQLTCVDEREHHRFLASEESQGSRNSSPESETSCPITTTDFPQPTETTAMTETFVLTMEYKGCKPCICTVPEVSSVFIFPPKPKDVLTITLTPKVTCVVVDISKDDPEVQFSWFVDDVEVHTAQTQPREEQFNSTFRSVSELPIMHQDWLNGKEFKCRVNSAAFPAPIEKTISKTKGRPKAPQVYTIPPPKEQMAKDKVSLTCMITDFFPEDITVEWQWNGQPAENYKNTQPIMDTDGSYFVYSKLNVQKSNWEAGNTFTCSVLHEGLHNHHTEKSLSHSPGK |  | 2.5 | 5190 | 0.7 |  |
